We go through four molecules from article PMC11748629, “Unidirectional MCM translocation away from ORC drives origin licensing” (Nature Communications, 2025).

B4: Orc4 (natural protein, Saccharomyces cerevisiae)
chain: MTISEARLSPQVNLLPIKRHSNEEVEETAAILKKRTIDNEKCKDSDPGFGSLQRRLLQQLYGTLPTDEKIIFTYLQDCQQEIDRIIKQSIIQKESHSVILVGPRQSYKTYLLDYELSLLQQSYKEQFITIRLNGFIHSEQTAINGIATQLEQQLQKIHGSEEKIDDTSLETISSGSLTEVFEKILLLLDSTTKTRNEDSGEVDRESITKITVVFIFDEIDTFAGPVRQTLLYNLFDMVEHSRVPVCIFGCTTKLNILEYLEKRVKSRFSQRVIYMPQIQNLDDMVDAVRNLLTVRSEISPWVSQWNETLEKELSDPRSNLNRHIRMNFETFRSLPTLKNSIIPLVATSKNFGSLCTAIKSCSFLDIYNKNQLSNNLTGRLQSLSDLELAILISAARVALRAKDGSFNFNLAYAEYEKMIKAINSRIPTVAPTTNVGTGQSTFSIDNTIKLWLKKDVKNVWENLVQLDFFTEKSAVGLRDNATAAFYASNYQFQGTMIPFDLRSYQMQIILQELRRIIPKSNMYYSWTQL
notes: Orc4, S. cerevisiae; Subunit of m1, written alone for the contacts seen in the structures; also called Orc4 subunit of ORC; source: S. cerevisiae strain ySD-ORC, purified as a subunit of ORC

Common to all, as to test: cryo-EM structure; OCCM^Mcm2RA: 30 nM MH-ARS1-MH DNA, 60 nM ORC, 90 nM Cdc6, 60 nM MCM-Cdt1 (Mcm2 R676A), 3 mM ATP; 25 mM HEPES pH 7.6, 100 mM potassium chloride, 10 mM magnesium acetate, 1 mM DTT; 30 °C, 30 min; 3.3 Å consensus, 3.2 Å local refinements
Holding throughout (settings): both partners purified

One test deals with T1, Mcm6 (Saccharomyces cerevisiae, UniProt P53091 1-1017).
T1 construct: Mcm6, S. cerevisiae; Subunit of m4 and m7, written alone for the contacts seen in the structures; also called Mcm6 subunit of MCM; source: S. cerevisiae strains yGC216 and yGC226, purified as a subunit of MCM-Cdt1

In the test “Orc4” the target is B4.
Another test addresses T2, Orc3 (Saccharomyces cerevisiae, UniProt P54790 1-616).
T2 construct: Orc3, S. cerevisiae; Subunit of m1, written alone for the contacts seen in the structures; also called Orc3 subunit of ORC; source: S. cerevisiae strain ySD-ORC, purified as a subunit of ORC
T2 sequence: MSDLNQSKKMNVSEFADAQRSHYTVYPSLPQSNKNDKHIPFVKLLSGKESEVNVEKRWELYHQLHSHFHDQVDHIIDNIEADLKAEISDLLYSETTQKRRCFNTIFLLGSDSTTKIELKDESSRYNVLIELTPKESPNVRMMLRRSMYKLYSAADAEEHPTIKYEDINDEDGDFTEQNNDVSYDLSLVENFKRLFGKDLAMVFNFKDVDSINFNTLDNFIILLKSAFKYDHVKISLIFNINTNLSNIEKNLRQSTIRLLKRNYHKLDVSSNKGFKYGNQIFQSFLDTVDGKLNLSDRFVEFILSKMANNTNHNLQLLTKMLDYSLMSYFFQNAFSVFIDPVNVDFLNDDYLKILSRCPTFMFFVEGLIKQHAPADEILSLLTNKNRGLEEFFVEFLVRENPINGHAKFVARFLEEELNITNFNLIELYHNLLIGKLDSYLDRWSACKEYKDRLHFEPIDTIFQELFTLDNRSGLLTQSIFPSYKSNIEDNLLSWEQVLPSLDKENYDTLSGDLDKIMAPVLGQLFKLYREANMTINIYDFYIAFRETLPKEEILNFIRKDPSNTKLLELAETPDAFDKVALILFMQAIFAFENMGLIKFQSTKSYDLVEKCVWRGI

For test [1], the target named is T3, Origin Recognition Complex (ORC) (Saccharomyces cerevisiae, UniProt P54784 1-914; P32833 1-620; P54790 1-616; P54791 1-529; P50874 1-479; P38826 …).
T3 construct: Orc1, S. cerevisiae; Orc2, S. cerevisiae; Orc3, S. cerevisiae; Orc4, S. cerevisiae; Orc5, S. cerevisiae; Orc6, S. cerevisiae; also called ORC complex; copies: + + + + +

Another test concerns the target T4, Orc1 (Saccharomyces cerevisiae, UniProt P54784 1-914).
T4 construct: Orc1, S. cerevisiae; Subunit of m1, written alone for the contacts seen in the structures; also called Orc1 subunit of ORC; source: S. cerevisiae strain ySD-ORC, purified as a subunit of ORC
T4 sequence: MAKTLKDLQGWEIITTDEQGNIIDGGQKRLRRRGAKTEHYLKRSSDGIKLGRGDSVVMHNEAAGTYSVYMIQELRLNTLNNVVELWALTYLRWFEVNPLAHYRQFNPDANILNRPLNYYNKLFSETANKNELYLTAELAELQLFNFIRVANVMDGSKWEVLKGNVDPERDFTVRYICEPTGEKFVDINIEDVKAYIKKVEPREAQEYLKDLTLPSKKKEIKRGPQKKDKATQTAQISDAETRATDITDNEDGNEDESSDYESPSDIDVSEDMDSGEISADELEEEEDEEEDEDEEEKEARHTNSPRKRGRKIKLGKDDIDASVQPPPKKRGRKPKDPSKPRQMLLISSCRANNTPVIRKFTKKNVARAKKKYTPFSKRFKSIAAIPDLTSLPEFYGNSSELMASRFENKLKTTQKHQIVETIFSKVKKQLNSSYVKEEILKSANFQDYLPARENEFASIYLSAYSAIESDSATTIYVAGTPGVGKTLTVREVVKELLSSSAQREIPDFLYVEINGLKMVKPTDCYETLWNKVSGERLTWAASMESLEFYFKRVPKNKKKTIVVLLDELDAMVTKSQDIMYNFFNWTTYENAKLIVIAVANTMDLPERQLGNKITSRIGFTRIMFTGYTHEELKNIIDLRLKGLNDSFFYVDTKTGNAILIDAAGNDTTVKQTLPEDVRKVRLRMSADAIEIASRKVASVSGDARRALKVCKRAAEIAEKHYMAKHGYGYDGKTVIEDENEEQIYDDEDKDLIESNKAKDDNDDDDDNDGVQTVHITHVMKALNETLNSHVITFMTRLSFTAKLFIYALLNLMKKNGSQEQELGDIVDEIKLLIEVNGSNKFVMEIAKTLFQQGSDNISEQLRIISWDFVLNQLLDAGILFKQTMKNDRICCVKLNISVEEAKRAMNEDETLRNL

T1 sequence (P53091 whole entry): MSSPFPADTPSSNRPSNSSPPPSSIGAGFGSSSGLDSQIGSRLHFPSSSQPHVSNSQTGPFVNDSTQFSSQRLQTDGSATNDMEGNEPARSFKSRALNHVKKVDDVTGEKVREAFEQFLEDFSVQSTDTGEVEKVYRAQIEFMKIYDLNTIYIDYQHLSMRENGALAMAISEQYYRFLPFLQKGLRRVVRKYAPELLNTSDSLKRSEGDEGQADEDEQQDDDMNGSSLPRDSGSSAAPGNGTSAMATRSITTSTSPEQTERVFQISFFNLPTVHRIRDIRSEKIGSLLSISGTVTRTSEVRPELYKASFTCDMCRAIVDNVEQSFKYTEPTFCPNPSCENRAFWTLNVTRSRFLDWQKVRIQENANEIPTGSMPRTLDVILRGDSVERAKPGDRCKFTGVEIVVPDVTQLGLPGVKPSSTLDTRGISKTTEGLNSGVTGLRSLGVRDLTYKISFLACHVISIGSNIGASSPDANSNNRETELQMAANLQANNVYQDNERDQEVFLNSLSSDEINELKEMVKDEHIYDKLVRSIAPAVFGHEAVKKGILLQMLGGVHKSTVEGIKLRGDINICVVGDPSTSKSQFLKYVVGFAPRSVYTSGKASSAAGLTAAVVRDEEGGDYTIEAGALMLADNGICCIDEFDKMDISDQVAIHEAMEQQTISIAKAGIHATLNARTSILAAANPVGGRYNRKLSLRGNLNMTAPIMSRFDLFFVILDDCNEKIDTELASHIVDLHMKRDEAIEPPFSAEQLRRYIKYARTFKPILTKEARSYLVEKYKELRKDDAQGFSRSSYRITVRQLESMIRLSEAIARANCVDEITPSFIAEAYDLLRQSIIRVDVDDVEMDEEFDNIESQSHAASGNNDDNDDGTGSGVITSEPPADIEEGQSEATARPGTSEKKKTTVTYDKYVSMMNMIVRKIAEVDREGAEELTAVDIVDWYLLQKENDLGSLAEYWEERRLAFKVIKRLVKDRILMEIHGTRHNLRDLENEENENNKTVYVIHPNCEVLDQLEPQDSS
T3 sequence (P32833 whole entry, chain 2 of 2): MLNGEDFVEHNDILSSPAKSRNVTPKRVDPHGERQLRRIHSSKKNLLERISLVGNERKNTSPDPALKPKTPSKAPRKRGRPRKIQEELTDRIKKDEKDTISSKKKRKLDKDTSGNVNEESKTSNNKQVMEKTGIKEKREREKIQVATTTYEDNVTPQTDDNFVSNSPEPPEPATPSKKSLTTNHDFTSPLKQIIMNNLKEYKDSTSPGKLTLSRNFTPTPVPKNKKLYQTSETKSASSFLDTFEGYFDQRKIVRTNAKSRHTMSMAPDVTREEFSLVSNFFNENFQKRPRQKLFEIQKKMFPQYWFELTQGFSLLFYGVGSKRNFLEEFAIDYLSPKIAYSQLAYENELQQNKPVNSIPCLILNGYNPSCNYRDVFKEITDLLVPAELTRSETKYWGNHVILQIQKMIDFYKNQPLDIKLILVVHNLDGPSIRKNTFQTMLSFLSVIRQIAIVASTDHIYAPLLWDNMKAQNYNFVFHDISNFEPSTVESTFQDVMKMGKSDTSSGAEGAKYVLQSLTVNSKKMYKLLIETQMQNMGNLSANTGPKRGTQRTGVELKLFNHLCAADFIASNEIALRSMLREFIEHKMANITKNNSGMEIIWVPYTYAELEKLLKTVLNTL
T3 sequence (P38826 whole entry, chain 6 of 2): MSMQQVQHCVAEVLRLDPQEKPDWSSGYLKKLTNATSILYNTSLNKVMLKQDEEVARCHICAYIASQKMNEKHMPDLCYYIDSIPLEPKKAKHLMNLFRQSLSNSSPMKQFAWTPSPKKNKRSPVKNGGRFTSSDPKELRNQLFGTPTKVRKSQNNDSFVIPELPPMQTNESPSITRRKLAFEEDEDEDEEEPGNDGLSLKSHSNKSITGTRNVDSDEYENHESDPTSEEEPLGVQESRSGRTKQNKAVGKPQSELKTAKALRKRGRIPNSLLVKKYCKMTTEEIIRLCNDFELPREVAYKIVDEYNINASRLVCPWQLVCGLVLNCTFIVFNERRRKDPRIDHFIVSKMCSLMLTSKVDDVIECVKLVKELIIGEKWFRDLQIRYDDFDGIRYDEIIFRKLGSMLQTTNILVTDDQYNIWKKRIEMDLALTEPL

B1: Mcm2 R676A (natural protein, Saccharomyces cerevisiae)
chain: MSDNRRRRREEDDSDSENELPPSSPQQHFRGGMNPVSSPIGSPDMINPEGDDNEVDDVPDIDEVEEQMNEVDLMDDNMYEDYAADHNRDRYDPDQVDDREQQELSLSERRRIDAQLNERDRLLRNVAYIDDEDEEQEGAAQLDEMGLPVQRRRRRRQYEDLENSDDDLLSDMDIDPLREELTLESLSNVKANSYSEWITQPNVSRTIARELKSFLLEYTDETGRSVYGARIRTLGEMNSESLEVNYRHLAESKAILALFLAKCPEEMLKIFDLVAMEATELHYPDYARIHSEIHVRISDFPTIYSLRELRESNLSSLVRVTGVVTRRTGVFPQLKYVKFNCLKCGSILGPFFQDSNEEIRISFCTNCKSKGPFRVNGEKTVYRNYQRVTLQEAPGTVPPGRLPRHREVILLADLVDVSKPGEEVEVTGIYKNNYDGNLNAKNGFPVFATIIEANSIKRREGNTANEGEEGLDVFSWTEEEEREFRKISRDRGIIDKIISSMAPSIYGHRDIKTAVACSLFGGVPKNVNGKHSIRGDINVLLLGDPGTAKSQILKYVEKTAHRAVFATGQGASAVGLTASVRKDPITKEWTLEGGALVLADKGVCLIDEFDKMNDQDRTSIHEAMEQQSISISKAGIVTTLQARCSIIAAANPNGGRYNSTLPLAQNVSLTEPILSAFDILCVVRDLVDEEADERLATFVVDSHVRSHPENDEDREGEELKNNGESAIEQGEDEINEQLNARQRRLQRQRKKEEEISPIPQELLMKYIHYARTKIYPKLHQMDMDKVSRVYADLRRESISTGSFPITVRHLESILRIAESFAKMRLSEFVSSYDLDRAIKVVVDSFVDAQKVSVRRQLRRSFAIYTLGH
notes: Mcm2, S. cerevisiae; Subunit of m4, written alone for the contacts seen in OCCM^Mcm2RA; also called Mcm2RA; source: S. cerevisiae strain yGC216, purified as a subunit of MCM-Cdt1
Turning to B1, the binding result in the test with Mcm6 is recorded as “binds”.

B2: Orc5 (natural protein, Saccharomyces cerevisiae)
chain: MNVTTPEVAFREYQTNCLASYISADPDITPSNLILQGYSGTGKTYTLKKYFNANPNLHAVWLEPVELVSWKPLLQAIARTVQYKLKTLYPNIPTTDYDPLQVEEPFLLVKTLHNIFVQYESLQEKTCLFLILDGFDSLQDLDAALFNKYIKLNELLPKDSKINIKFIYTMLETSFLQRYSTHCIPTVMFPRYNVDEVSTILVMSRCGELMEDSCLRKRIIEEQITDCTDDQFQNVAANFIHLIVQAFHSYTGNDIFALNDLIDFKWPKYVSRITKENIFEPLALYKSAIKLFLSTDDNLSENGQGESAITTNRDDLENSQTYDLSIISKYLLIASYICSYLEPRYDASIFSRKTRIIQGRAAYGRRKKKEVNPRYLQPSLFAIERLLAIFQAIFPIQGKAESGSLSALREESLMKANIEVFQNLSELHTLKLIATTMNKNIDYLSPKVRWKVNVPWEIIKEISESVHFNISDYFSDIHE
notes: Orc5, S. cerevisiae; Subunit of m1, written alone for the contacts seen in the structures; also called Orc5 subunit of ORC; source: S. cerevisiae strain ySD-ORC, purified as a subunit of ORC
Consider B2, for which the binding result with Orc4 and with Orc3 was “binds” in each case.

B3: Saccharomyces cerevisiae Cdc6 (natural protein, UniProt P09119 1-513, looked up)
chain: MSAIPITPTKRIRRNLFDDAPATPPRPLKRKKLQFTDVTPESSPEKLQFGSQSIFLRTKALLQKSSELVNLNSSDGALPARTAEYEQVMNFLAKAISEHRSDSLYITGPPGTGKTAQLDMIIRQKFQSLPLSLSTPRSKDVLRHTNPNLQNLSWFELPDGRLESVAVTSINCISLGEPSSIFQKIFDSFQDLNGPTLQIKNMQHLQKFLEPYHKKTTFVVVLDEMDRLLHANTSETQSVRTILELFLLAKLPTVSFVLIGMANSLDMKDRFLSRLNLDRGLLPQTIVFQPYTAEQMYEIVIQKMSSLPTIIFQPMAIKFAAKKCAGNTGDLRKLFDVLRGSIEIYELEKRFLLSPTRGSLNSAQVPLTPTTSPVKKSYPEPQGKIGLNYIAKVFSKFVNNNSTRTRIAKLNIQQKLILCTIIQSLKLNSDATIDESFDHYIKAITKTDTLAPLQRNEFLEICTILETCGLVSIKKTKCKGKTKRFVDKIDVDLDMREFYDEMTKISILKPFLH
notes: Cdc6, S. cerevisiae; source: E. coli BL21(CodonPlus)-RIL, plasmid pAM3, purified (glutathione sepharose, preScission protease, hydroxyapatite)
For the molecule B3, the binding result (in test [1]; with Orc1) was “binds” in each case. On to B4, for which the binding result with Orc1 was “binds”.
